In patent EP4273162A1 (Numab Therapeutics AG, dated 2023):

What was measured:
[1] = biological target: T1, human α-Mesothelin (Acro Biosystems; MSN_H5223) (human, UniProt Q13421 296-580, limits assumed); assay: SPR, MSLN immobilised, scFv as analyte, 1:1 Langmuir fit
T1 construct: also called Human MSLN; MSLN

[2] = biological target: pre-existing anti-drug antibodies (ADAs) in human sera; assay: ELISA, scFv coated, 5% human serum unspiked/spiked, anti-human IgG-HRP
[3] = biological target: T2, human α-PD-L1 Fc (Sino Biological, 10084-H02H, LC11NO2402) (human, UniProt Q9NZQ7 19-239); assay: SPR, PD-L1 Fc immobilised, scFv as analyte, 1:1 Langmuir fit
T2 construct: also called Human PD-L1
T2 sequence (Q9NZQ7 19-239 limits assumed): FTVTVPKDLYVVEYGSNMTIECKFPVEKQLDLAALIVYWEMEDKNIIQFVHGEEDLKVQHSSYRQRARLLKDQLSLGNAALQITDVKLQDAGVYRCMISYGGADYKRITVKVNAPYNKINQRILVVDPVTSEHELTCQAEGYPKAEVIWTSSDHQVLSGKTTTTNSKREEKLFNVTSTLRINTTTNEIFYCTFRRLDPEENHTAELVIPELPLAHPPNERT

T1 sequence (Q13421 other isoform, or with tags, fused parts or gaps limits assumed): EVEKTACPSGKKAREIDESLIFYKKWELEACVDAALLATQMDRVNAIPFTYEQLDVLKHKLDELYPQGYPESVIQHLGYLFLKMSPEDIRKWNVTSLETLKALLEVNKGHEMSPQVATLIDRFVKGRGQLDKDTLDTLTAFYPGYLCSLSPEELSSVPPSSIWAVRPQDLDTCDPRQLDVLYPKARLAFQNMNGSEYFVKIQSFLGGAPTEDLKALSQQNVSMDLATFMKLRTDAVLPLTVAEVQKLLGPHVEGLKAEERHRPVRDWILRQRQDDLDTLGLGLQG

Row | Kd [1] [nM] | No of positive serum samples above 30 % CCP (positive sera of 20) [2] | No of screening positive serum samples above 30 % Inhibition (positive sera of 20) [2] | Kd [3] [nM] | Binder
1 | 1.8 | 10 | 16 | – | scFv 54-21-H03-sc01 (PRO1922) (scFv, also called PRO1992; PRO1922 wt) scFv: DIQMTQSPSSLSASVGDRVTITCQASESIYSSLAWYQQKPGKAPKLLIYLASTLASGVPSRFSGSGSGTDFTLTISSLQPEDFATYYCQSTDYTTSTHRNSFGTGTKVTVLGGGGGSGGGGSGGGGSGGGGSEVQLVESGGGLVQPGGSLRLSCAASGFSFSTTYYMCWVRQAPGKGLEWIGCTNTASSVRTYYATWAKGRFTISRDNSKNTVYLQMNSLRAEDTAVYYCARDMGFADYALNLWGQGTLVTVSS
2 | – | 6 | 18 | 1.5 | scFv 37-20-B03-sc09.1 PRO2230 (scFv, also called PRO2330; PRO2230 wt) scFv: DIQMTQSPASLSASVGDRVTITCQASQSIGTYLAWYQQKPGKPPKLLIYRAFILASGVPSRFSGSGSGTDFTLTISSLQPEDFATYYCQSNFYSDSTTIGPNAFGTGTKVTVLGGGGGSGGGGSGGGGSGGGGSEVQLVESGGGLVQPGGSLRLSCAASGFSFNSDYWIYWVRQAPGKGLEWIASIYGGSSGNTQYASWAQGRFTISRDNSKNTVYLQMNSLRAEDTAVYFCARGYVDYGGATDLWGQGTLVTVSS
